Measurements from patent US6436691B1, “Chemical compounds” (Zeneca Limited, priority 1995, dated 2002).

Experiments:
Format in all cases: biochemical
[1] = Km and kcat of HCPB mutants with Hipp-Glu (Example 7); settings: Hipp-Glu 0.25-8.0 mM; pH 7.5; 5 h at 37° C.
Method: Hipp-Glu and Hipp-Asp were diluted in range 0.25-8.0 mM and 0.25-5.0 mM respectively in 0.025 M Tris-HCL buffer, pH 7.5. Where necessary substrate samples were adjusted to pH 7.5 with 1M NaOH.
Samples were incubated for 5 h at 37° C. Reactions were terminated by the addition of 500 μl methanol/distilled water (80/20) containing 0.2% TFA. The amount of hippuric acid produced was quantified by HPLC as described in Example 6.
Km and Vmax values were calculated using the ENZFITTER software programme (Biosoft, Perkin Elmer).

[2] = Conversion of Hipp-Glu by purified HCPB mutants, 30 minutes, HPLC (Example 17); settings: 0.5 mM substrate, 30 minutes at 37° C.
Method: (§1) Purified mutants of human CPB (D253K; [G251K,D253R]; [G251N,D253R]; [I201S,D253K]; [G251N,D253K]; [Q54R,D145A,D253K]; [G251T,D253K]; [G251S,D253K]; [A248N,G251N,D253K]; [A248S,G251N,D253K] and [S205N,G251N,D253K]—described in Examples 3, 12, 13, 16, 28, 30, 31, 32 and 33) were assayed for their ability to convert hippuryl-L-glutamic acid (Hipp-Glu—Reference Example 1), hippuryl-L-aspartic acid (Hipp-Asp—Reference Example 2) and hippuryl-L-arginine (Sigma Chemical Company—cat no. H6625) to hippuric acid using a HPLC based assay similar to that described in Example 6.
(§2) Samples were incubated for 30 minutes at 37° C. The reactions were terminated by the addition of 500 μl of 40% methanol, 60% distilled water, 0.2% trifluoro acetic acid and the amount of hippuric acid generated was quantitated by HPLC as described in Example 6 but using a mobile phase of 20% methanol, 80% 50 mM phosphate buffer, pH 6.5. Hippuric acid was detected at 230 nm. The results are shown in Table 5 and are expressed as the percentage conversion of substrate into product in 30 minutes at 37° C.

[3] = Conversion of Hipp-Asp by purified HCPB mutants, 30 minutes, HPLC (Example 17); settings: 0.5 mM substrate, 30 minutes at 37° C.
Method: as §1, §2

[4] = Conversion of Hipp-Arg by purified HCPB mutants, 30 minutes, HPLC (Example 17); settings: 0.5 mM substrate, 30 minutes at 37° C.
Method: as §1, §2

[5] = Conversion of prodrug of Example 24 to drug of Example 25 by HCPB mutants, HPLC (Example 20); settings: enzyme 15 μg/ml; 0.5 mM prodrug of Example 24; 5 minutes at 37° C.
Method: The reaction was stopped by adding MeCN (500 μl) plus 0.2% Trifluoroacetic acid. The amount of drug produced was then quantified by HPLC.
HPLC separation was carried out as described in Example 6 except that a mobile phase of 70% MeCN, 30% distilled water and 0.1% trifluoroacetic acid was used to achieve separation of prodrug (retention time 3.8 minutes) and drug (retention time 4.9 minutes) and the compounds were detected at 260 nm. The amount of drug produced was quantified from calibration curves generated with known amounts of drug.
The amount of [Q54R,D145A,D253K]HCPB and [G251T,D253K]HCPB mutants was reduced to 0.75 μg in the reaction mixture.

[6] = Activity against Hipp-Asp in crude E. coli periplasmic shockate relative to D253K or D253R HCPB (Example 16)
Text: A number of other mutant HCPBs have been constructed in a similar manner to the methods described in Reference Examples 7 and 8, and Examples 12, 13, 14 and 15. In each case oligos were constructed to introduce specific changes in the gene sequence by methods similar to those described above. In some cases additional mutations were identified upon complete sequencing of the mutated gene, and these were presumably introduced during the PCR reactions. Mutants with enzyme activity against substrate analogues (see Example 18 below) have been identified, and examples of these are given in Table 4 below. […] This material is subsequently referred to as periplasmic shockate or shockate and is prepared by the following procedure.
1. A single colony was used to inoculate 75 ml of L-broth nutrient media containing 10 μg/ml tetracycline and arabinose to a final concentration of 0.01% (w/v). Incubation was performed at 20° C. with shaking (250 rpm) for about 60 hours.
2. The cells were then harvested by centrifugation at 4° C.
3. The cell pellet was re-suspended in 300 micro-liters of 20% sucrose (w/v) containing 1 mM EDTA in 200 mM Tris-HCl at pH7.5, and incubated at room-temperature for 15 minutes.
4. Periplasmic shockate was generated by the addition of 450 micro-liters of distilled water, and a further incubation at room-temperature for 15 minutes.
5. Cellular remains were removed by centrifugation, and the supernatant assayed for enzyme activity as soon as possible after preparation and kept at 4° C. prior to assay.
The activity of [G251T,D253K]HCPB was measured using the assay conditions described in Example 17 but using either 50 μl of a neat or 1 in 10 or 1 in 100 dilution of [G251T,D253K]HCPB crude E.coli periplasmic shockate (shockate) sample in place of purified enzyme. Samples were incubated for 24 h at 37° C. […] For other HCPB mutants, the reaction volume was 250 μl and contained 125 μl of neat shockate or 1 in 50 dilution of shockate. The shockate samples were prepared as described in Example 16. The amount of Hippuric acid produced in 24 h was quantified by HPLC as described in Example 17 and the results are shown in Table 6 and are expressed as the percentage conversion of substrate into product in 24 h at 37° C.

B1: [G251N,D253K]: HCPB mutant with G251N and D253K, (His)6-c-myc tag (protein, UniProt P15086 111-417, looked up, variant G251N D253K)
Carboxypeptidase B: ATGHSYEKYNKWETIEAWTQQVATENPALISRSVIGTTFEGRAIYLLKVGKAGQNKPAIFMDCGFHAREWISPAFCQWFVREAVRTYGREIQVTELLDKLDFYVLPVLNIDGYIYTWTKSRFWRKTRSTHTGSSCIGTDPNRNFDAGWCEIGASRNPCDETYCGPAAESEKETKALADFIRNKLSSIKAYLTIHSYSQMMIYPYSYAYKLGENNAELNALAKATVKELASLHGTKYTYGPGATTIYPAAGNSKDWAYDQGIRYSFTFELRDTGRYGFLLPESQIRATCEETFLAIKYVASYVLEHLY
modifications: (His)6-c-myc tag
Km [1]: 2300 µM
kcat, Hipp-Glu [1]: 24 s⁻¹
Hipp-Glu (% conversion) ([2]; enzyme 2.5 μg/ml): 62.4%
Hipp-Glu (% conversion) ([2]; enzyme 25 μg/ml): 100%
Hipp-Asp (% conversion) ([3]; enzyme 2.5 μg/ml): 1.9%
Hipp-Asp (% conversion) ([3]; enzyme 25 μg/ml): 8.3%
Hipp-Arg (% conversion) ([4]; enzyme 2.5 μg/ml): 0.4%
Hipp-Arg (% conversion) ([4]; enzyme 25 μg/ml): 1.8%
Prodrug Hydrolysis (%) [5]: 75.9%

B2: [I245H, D253K]: HCPB mutant with I245H and D253K (protein, UniProt P15086 111-417, looked up, variant I245H D253K)
Carboxypeptidase B: ATGHSYEKYNKWETIEAWTQQVATENPALISRSVIGTTFEGRAIYLLKVGKAGQNKPAIFMDCGFHAREWISPAFCQWFVREAVRTYGREIQVTELLDKLDFYVLPVLNIDGYIYTWTKSRFWRKTRSTHTGSSCIGTDPNRNFDAGWCEIGASRNPCDETYCGPAAESEKETKALADFIRNKLSSIKAYLTIHSYSQMMIYPYSYAYKLGENNAELNALAKATVKELASLHGTKYTYGPGATTHYPAAGGSKDWAYDQGIRYSFTFELRDTGRYGFLLPESQIRATCEETFLAIKYVASYVLEHLY
Hipp-Asp, activity relative to D253K HCPB or D253R HCPB [6]: NAD (No activity detected)

B3: [A248H, D253K]: HCPB mutant with A248H and D253K (protein, UniProt P15086 111-417, looked up, variant A248H D253K)
Carboxypeptidase B: ATGHSYEKYNKWETIEAWTQQVATENPALISRSVIGTTFEGRAIYLLKVGKAGQNKPAIFMDCGFHAREWISPAFCQWFVREAVRTYGREIQVTELLDKLDFYVLPVLNIDGYIYTWTKSRFWRKTRSTHTGSSCIGTDPNRNFDAGWCEIGASRNPCDETYCGPAAESEKETKALADFIRNKLSSIKAYLTIHSYSQMMIYPYSYAYKLGENNAELNALAKATVKELASLHGTKYTYGPGATTIYPHAGGSKDWAYDQGIRYSFTFELRDTGRYGFLLPESQIRATCEETFLAIKYVASYVLEHLY
Hipp-Asp, activity relative to D253K HCPB or D253R HCPB [6]: NAD (No activity detected)

B4: [G251Q, D253K]: HCPB mutant with G251Q and D253K (protein, UniProt P15086 111-417, looked up, variant G251Q D253K)
Carboxypeptidase B: ATGHSYEKYNKWETIEAWTQQVATENPALISRSVIGTTFEGRAIYLLKVGKAGQNKPAIFMDCGFHAREWISPAFCQWFVREAVRTYGREIQVTELLDKLDFYVLPVLNIDGYIYTWTKSRFWRKTRSTHTGSSCIGTDPNRNFDAGWCEIGASRNPCDETYCGPAAESEKETKALADFIRNKLSSIKAYLTIHSYSQMMIYPYSYAYKLGENNAELNALAKATVKELASLHGTKYTYGPGATTIYPAAGQSKDWAYDQGIRYSFTFELRDTGRYGFLLPESQIRATCEETFLAIKYVASYVLEHLY
Hipp-Asp, activity relative to D253K HCPB or D253R HCPB [6]: NAD (No activity detected)

B5: [G251V, D253K]: HCPB mutant with G251V and D253K (protein, UniProt P15086 111-417, looked up, variant G251V D253K)
Carboxypeptidase B: ATGHSYEKYNKWETIEAWTQQVATENPALISRSVIGTTFEGRAIYLLKVGKAGQNKPAIFMDCGFHAREWISPAFCQWFVREAVRTYGREIQVTELLDKLDFYVLPVLNIDGYIYTWTKSRFWRKTRSTHTGSSCIGTDPNRNFDAGWCEIGASRNPCDETYCGPAAESEKETKALADFIRNKLSSIKAYLTIHSYSQMMIYPYSYAYKLGENNAELNALAKATVKELASLHGTKYTYGPGATTIYPAAGVSKDWAYDQGIRYSFTFELRDTGRYGFLLPESQIRATCEETFLAIKYVASYVLEHLY
Hipp-Asp, activity relative to D253K HCPB or D253R HCPB [6]: NAD (No activity detected)

B6: [G251K, D253R]: HCPB mutant with G251K and D253R (protein, UniProt P15086 111-417, looked up, variant G251K D253R)
Carboxypeptidase B: ATGHSYEKYNKWETIEAWTQQVATENPALISRSVIGTTFEGRAIYLLKVGKAGQNKPAIFMDCGFHAREWISPAFCQWFVREAVRTYGREIQVTELLDKLDFYVLPVLNIDGYIYTWTKSRFWRKTRSTHTGSSCIGTDPNRNFDAGWCEIGASRNPCDETYCGPAAESEKETKALADFIRNKLSSIKAYLTIHSYSQMMIYPYSYAYKLGENNAELNALAKATVKELASLHGTKYTYGPGATTIYPAAGKSRDWAYDQGIRYSFTFELRDTGRYGFLLPESQIRATCEETFLAIKYVASYVLEHLY
Hipp-Asp, activity relative to D253K HCPB or D253R HCPB [6]: NAD (No activity detected)
Hipp-Glu (% conversion) ([2]; enzyme 2.5 μg/ml): 3.2%
Hipp-Glu (% conversion) ([2]; enzyme 25 μg/ml): 5.5%
Hipp-Asp (% conversion) ([3]; enzyme 2.5 μg/ml): 0.2%
Hipp-Asp (% conversion) ([3]; enzyme 25 μg/ml): 0.2%
Hipp-Arg (% conversion) ([4]; enzyme 2.5 μg/ml): 0%
Hipp-Arg (% conversion) ([4]; enzyme 25 μg/ml): 0%
Prodrug Hydrolysis (%) [5]: 16.2%

B7: [A248S, G251S, D253K]: HCPB mutant with A248S, G251S and D253K (protein, UniProt P15086 111-417, looked up, variant A248S G251S D253K)
Carboxypeptidase B: ATGHSYEKYNKWETIEAWTQQVATENPALISRSVIGTTFEGRAIYLLKVGKAGQNKPAIFMDCGFHAREWISPAFCQWFVREAVRTYGREIQVTELLDKLDFYVLPVLNIDGYIYTWTKSRFWRKTRSTHTGSSCIGTDPNRNFDAGWCEIGASRNPCDETYCGPAAESEKETKALADFIRNKLSSIKAYLTIHSYSQMMIYPYSYAYKLGENNAELNALAKATVKELASLHGTKYTYGPGATTIYPSAGSSKDWAYDQGIRYSFTFELRDTGRYGFLLPESQIRATCEETFLAIKYVASYVLEHLY
Hipp-Asp, activity relative to D253K HCPB or D253R HCPB [6]: NAD (No activity detected)
